Laboratory results: patent publication US20200095296A1, “USE OF PEPTIDES AS BIOMARKERS IN THE DIAGNOSIS, CONFIRMATION AND TREATMENT OF A NEUROLOGICAL DISORDER AND TCR AND/OR HLA IMMUNOPROFILING IN NEURODEGENERATIVE DISEASE” (THE TRUSTEES OF COLUMBIA UNIVERSITY IN THE CITY OF NEW YORK, priority 2017, published 2020)

Key:
Experiment in all cases: competition with radiolabeled peptide, purified HLA
[1] = target: HLA DRB3*01:01 (human)
[2] = target: HLA DRB1*11:01 (human)
[3] = target: HLA DRB1*03:01 (human)
[4] = target: HLA DRB1*04:01 (human)
[5] = target: HLA DRB1*04:05 (human)
[6] = target: HLA DRB1*09:01 (human)

Row | Substance | IC50 [1] [µM] | IC50 [4] [µM] | IC50 [5] [µM] | also measured
1 | alpha-syn peptide aa126…aa140 phosphorylated at S129 | – | 4.96 | – | –
2 | alpha-syn peptide aa121…aa135 phosphorylated at S129 | 9.18 | 9.13 | – | –

The next lines start with results.

Row | IC50 [1] [µM] | IC50 [4] [µM] | IC50 [5] [µM] | Substance | also measured
3 | 5.67 | – | – | alpha-syn peptide aa116…aa130 | IC50 [2]: 1.57 µM; IC50 [3]: 6.96 µM
4 | – | – | 3.6 | alpha-syn peptide aa116…aa130 phosphorylated at S129 | –
5 | – | – | 1.94 | alpha-syn peptide aa121…aa135 | IC50 [6]: 4.6 µM
